In US12281340B2, “Method of producing N-acyl-amino group-containing compound” (AJINOMOTO CO., INC., priority 2018, dated 2025):

Key:
Type in all cases: biochemical
[1] = Synthesis of N-lauroylamino acid / N-lauroylamino acid derivative using purified acylamino acid synthetase, UPLC-MS detection; parameters: key: +: Detected; −: Not detected; settings: +ATP
[2] = Analysis of ATP dependency of acylamino acid synthetase; settings: L-Asp and sodium caprate
Protocol: 0.25 mL of a reaction solution containing 50 mM Tris-HCl, 5 mM amino acid, 5 mM sodium caprate, 10 mM or 0 mM ATP, 10 mM MgCl2, 1 mM DTT, 50 μg of the purified enzyme, pH 8.0 was incubated at 25° C. for 24 hours. As the amino acid, L-Asp and Gly were used in AtGH3-6 and CfHP, respectively. After completion of the reaction, 0.8 mL of the reaction stop solution (1% (v/v) phosphoric acid, 75% (v/v) methanol) was added to 0.2 mL of the reaction solution, and the mixture was filtrated through the filter followed by being subjected to the UPLC-MS analysis to quantify a produced N-caprinoylamino acid by detection at UV 210 nm. The condition for the UPLC-MS analysis is as described in Example 2. As a result of the analysis, 3.8 mM and […] of the N-caprinoylamino acids were detected in AtGH3-6 and CfHP, respectively in the presence of ATP. However, in the absence of ATP, no signal of the molecular weight corresponding to the N-caprinoylamino acid was detected when any of AtGH3-6 and CfHP was used.

[3] = Synthesis of N-caprinoyl-amino acid derivative, N-caprinoyl-D-amino acid and N-caprinoyl-peptide using purified acylamino acid synthetase, UPLC-MS detection; parameters: key: +: Detected; −: Not detected; settings: +ATP
Summary of the method: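 Purified enzyme (50 μg/mL) was incubated with 5 mM sodium caprate, 5 mM amino acid derivative, D-amino acid or peptide, 10 mM ATP, 10 mM MgCl2 and 1 mM DTT in 50 mM Tris-HCl, pH 8.0, for 24 h at 25 °C. After acidic methanol stop, UPLC-MS looked for the mass of the N-caprinoyl product.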

[4] = Synthesis of N-acylamino acids from various fatty acids using purified acylamino acid synthetase, UPLC-MS detection; parameters: key: +: Detected; −: Not detected
Summary of the method: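 Purified enzyme (200 μg/mL) with 5 mM amino acid, 5 mM sodium fatty acid (3 mM palmitate or stearate, plus 10% methanol), 10 mM ATP, 10 mM MgCl2, 1 mM DTT in 50 mM Tris-HCl pH 8.0, shaken 24 h at 25 °C. Amino acid varied by enzyme; product mass detected by UPLC-MS (ESI-negative).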

B1: AtGH3-6: indole-3-acetic acid-amido synthetase GH3.6 from Arabidopsis thaliana, expressed in E. coli with N-terminal His-tag (protein, listed as Arabidopsis thaliana)
chain: MPEAPKIAALEVSDESLAEKNKNKLQFIEDVTTNADDVQRRVLEEILSRNADVEYLKRHGLEGRTDRETFKHIMPVVTYEDIQPEINRIANGDKSQVLCSNPISEFLTSSGTSGGERKLMPTIEEELDRRSLLYSLLMPVMDQFVPGLDKGKGMYFLFIKSESKTPGGLPARPVLTSYYKSSHFKNRPYDPYTNYTSPNQTILCSDSYQSMYSQMLCGLCQHKEVLRVGAVFASGFIRAIKFLEKHWPELARDIRTGTLSSEITDSSVREAVGEILKPDPKLADFVESECRKTSWQGIITRLWPNTKYVDVIVTGTMSQYIPTLDYYSNGLPLVCTMYASSECYFGVNLRPLCKPSEVSYTLIPNMAYFEFLPVHRNSGVTSSISLPKALTEKEQQELVDLVDVKLGQEYELVVTTYAGLYRYRVGDVLSVAGFKNNAPQFSFICRKNVVLSIDSDKTDEVELQNAVKNAVTHLVPFDASLSEYTSYADTSSIPGHYVLFWELCLNGNTPIPPSVFEDCCLTIEESLNSVYRQGRVSDKSIGPLEIKMVESGTFDKLMDYAISLGASINQYKTPRCVKFAPIIELLNSRVVDSYFSPKCPKWSPGHKQWGSN
modifications: N-terminal His-tag
notes: indole-3-acetic acid-amido synthetase GH3.6 from Arabidopsis thaliana, expressed in E. coli with N-terminal His-tag
−: signal of molecular weight corresponding to N-acylamino acid ([4]; substrates L-Asp and Linoleic acid)
3.8 mM: N-caprinoylamino acid detected ([2]; in the presence of ATP (10 mM), UV 210 nm)
no signal: signal of molecular weight corresponding to N-caprinoyl amino acid ([2]; in the absence of ATP)
+: signal of molecular weight corresponding to N-lauroyl amino acid derivative ([1]; substrates Sarcosine and sodium laurate) | signal of molecular weight corresponding to N-lauroyl amino acid derivative ([1]; substrates Taurine and sodium laurate) | signal of molecular weight corresponding to N-caprinoyl compound ([3]; substrates Carnosine and sodium caprate) | signal of molecular weight corresponding to N-caprinoyl compound ([3]; substrates D-Ala and sodium caprate) | signal of molecular weight corresponding to N-caprinoyl compound ([3]; substrates D-Asp and sodium caprate) | signal of molecular weight corresponding to N-caprinoyl compound ([3]; substrates D-Cys and sodium caprate) | signal of molecular weight corresponding to N-caprinoyl compound ([3]; substrates D-Glu and sodium caprate) | signal of molecular weight corresponding to N-caprinoyl compound ([3]; substrates D-Ile and sodium caprate) | signal of molecular weight corresponding to N-caprinoyl compound ([3]; substrates D-Lys and sodium caprate) | signal of molecular weight corresponding to N-caprinoyl compound ([3]; substrates L-Asp-L-Phe and sodium caprate) | signal of molecular weight corresponding to N-caprinoyl compound ([3]; substrates L-Gly-L-Gly and sodium caprate) | signal of molecular weight corresponding to N-caprinoyl compound ([3]; substrates Sarcosine and sodium caprate) | signal of molecular weight corresponding to N-caprinoyl compound ([3]; substrates Taurine and sodium caprate) | signal of molecular weight corresponding to N-acylamino acid ([4]; substrates L-Asp and Capric acid) | signal of molecular weight corresponding to N-acylamino acid ([4]; substrates L-Asp and Caproic acid) | signal of molecular weight corresponding to N-acylamino acid ([4]; substrates L-Asp and Caprylic acid) | signal of molecular weight corresponding to N-acylamino acid ([4]; substrates L-Asp and Lauric acid) | signal of molecular weight corresponding to N-acylamino acid ([4]; substrates L-Asp and Palmitic acid) | signal of molecular weight corresponding to N-acylamino acid ([4]; substrates L-Asp and myristic acid)
